T1: GST-Dbf4 (budding yeast, UniProt P32325 1-704)
T1 sequence (looked up): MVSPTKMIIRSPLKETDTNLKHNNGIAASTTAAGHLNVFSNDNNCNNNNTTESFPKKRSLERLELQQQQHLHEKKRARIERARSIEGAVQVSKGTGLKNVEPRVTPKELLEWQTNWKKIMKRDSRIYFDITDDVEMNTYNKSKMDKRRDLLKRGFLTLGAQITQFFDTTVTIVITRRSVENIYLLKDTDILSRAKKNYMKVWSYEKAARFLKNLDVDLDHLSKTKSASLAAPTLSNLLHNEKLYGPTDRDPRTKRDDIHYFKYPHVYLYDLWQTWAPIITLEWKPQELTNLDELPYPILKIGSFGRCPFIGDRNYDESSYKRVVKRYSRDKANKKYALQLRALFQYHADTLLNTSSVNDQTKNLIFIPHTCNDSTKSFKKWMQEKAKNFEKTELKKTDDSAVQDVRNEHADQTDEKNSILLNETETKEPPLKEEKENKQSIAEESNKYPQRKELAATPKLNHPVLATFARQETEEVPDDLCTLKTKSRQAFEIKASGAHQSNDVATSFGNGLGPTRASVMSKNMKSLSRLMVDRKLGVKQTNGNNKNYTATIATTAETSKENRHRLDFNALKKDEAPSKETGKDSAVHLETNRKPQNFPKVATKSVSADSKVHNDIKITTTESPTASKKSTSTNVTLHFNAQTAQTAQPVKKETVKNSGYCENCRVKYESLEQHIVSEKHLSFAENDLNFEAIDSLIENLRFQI

T2: GST-Cdc45 (budding yeast, UniProt Q08032 1-650)
T2 sequence (looked up): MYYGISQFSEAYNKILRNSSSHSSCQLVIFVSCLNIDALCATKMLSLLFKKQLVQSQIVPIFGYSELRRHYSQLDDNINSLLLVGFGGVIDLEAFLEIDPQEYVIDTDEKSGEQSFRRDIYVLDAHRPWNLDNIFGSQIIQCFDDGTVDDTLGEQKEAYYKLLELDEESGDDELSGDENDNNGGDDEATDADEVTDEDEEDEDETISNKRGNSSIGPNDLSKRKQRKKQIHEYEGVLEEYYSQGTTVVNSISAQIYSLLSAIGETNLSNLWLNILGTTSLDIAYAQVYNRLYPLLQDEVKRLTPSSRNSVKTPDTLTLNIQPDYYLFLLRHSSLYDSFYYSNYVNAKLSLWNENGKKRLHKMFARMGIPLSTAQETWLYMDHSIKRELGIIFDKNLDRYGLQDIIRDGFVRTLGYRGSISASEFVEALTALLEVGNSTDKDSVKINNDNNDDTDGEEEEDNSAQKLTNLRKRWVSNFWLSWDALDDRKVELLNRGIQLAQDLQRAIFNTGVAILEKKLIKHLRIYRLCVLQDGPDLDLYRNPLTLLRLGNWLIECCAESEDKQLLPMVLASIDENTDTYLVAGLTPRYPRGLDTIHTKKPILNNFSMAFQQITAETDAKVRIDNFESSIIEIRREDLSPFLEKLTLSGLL


Tests used:
GST-Dbf4 = biological target: T1, GST-Dbf4; experiment: pull-down
GST-Cdc45 = biological target: T2, GST-Cdc45; experiment: pull-down

Binder | binding result (GST-Dbf4) | binding result (GST-Cdc45)
PKA-Mcm10 (wild-type), radiolabeled (natural protein, Saccharomyces cerevisiae, UniProt P32354 1-571, looked up, 32P label put on the PKA tag by protein kinase A with [gamma-32P]-ATP) MNDPREILAVDPYNNITSDEEDEQAIARELEFMERKRQALVERLKRKQEFKKPQDPNFEAIEVPQSPTKNRVKVGSHNATQQGTKFEGSNINEVRLSQLQQQPKPPASTTTYFMEKFQNAKKNEDKQIAKFESMMNARVHTFSTDEKKYVPIITNELESFSNLWVKKRYIPEDDLKRALHEIKILRLGKLFAKIRPPKFQEPEYANWATVGLISHKSDIKFTSSEKPVKFFMFTITDFQHTLDVYIFGKKGVERYYNLRLGDVIAILNPEVLPWRPSGRGNFIKSFNLRISHDFKCILEIGSSRDLGWCPIVNKKTHKKCGSPINISLHKCCDYHREVQFRGTSAKRIELNGGYALGAPTKVDSQPSLYKAKGENGFNIIKGTRKRLSEEEERLKKSSHNFTNSNSAKAFFDEKFQNPDMLANLDNKRRKIIETKKSTALSRELGKIMRRRESSGLEDKSVGERQKMKRTTESALQTGLIQRLGFDPTHGKISQVLKSSVSGSEPKNNLLGKKKTVINDLLHYKKEKVILAPSKNEWFKKRSHREEVWQKHFGSKETKETSDGSASDLEII | binds | 
PKA-Mcm10-m2,3,4 (Mcm10-K216E-N313E-K314E), radiolabeled (natural protein, Saccharomyces cerevisiae, UniProt P32354 1-571, looked up, 32P label put on the PKA tag by protein kinase A with [gamma-32P]-ATP) MNDPREILAVDPYNNITSDEEDEQAIARELEFMERKRQALVERLKRKQEFKKPQDPNFEAIEVPQSPTKNRVKVGSHNATQQGTKFEGSNINEVRLSQLQQQPKPPASTTTYFMEKFQNAKKNEDKQIAKFESMMNARVHTFSTDEKKYVPIITNELESFSNLWVKKRYIPEDDLKRALHEIKILRLGKLFAKIRPPKFQEPEYANWATVGLISHESDIKFTSSEKPVKFFMFTITDFQHTLDVYIFGKKGVERYYNLRLGDVIAILNPEVLPWRPSGRGNFIKSFNLRISHDFKCILEIGSSRDLGWCPIVEEKTHKKCGSPINISLHKCCDYHREVQFRGTSAKRIELNGGYALGAPTKVDSQPSLYKAKGENGFNIIKGTRKRLSEEEERLKKSSHNFTNSNSAKAFFDEKFQNPDMLANLDNKRRKIIETKKSTALSRELGKIMRRRESSGLEDKSVGERQKMKRTTESALQTGLIQRLGFDPTHGKISQVLKSSVSGSEPKNNLLGKKKTVINDLLHYKKEKVILAPSKNEWFKKRSHREEVWQKHFGSKETKETSDGSASDLEII | binds | binds

Source: article PMC5115986 (Journal of molecular biology, 2016)
